In one data set the test system is DLD1. Kind of data set: MTT cell viability assay. The settings on record: 96 hours, 6 μg/ml. It is filed as cell-based, human.
The test system of a further data set is S1PR1. Kind of data set: S1PR1 expression by immunofluorescence. It is filed as cell-based, human. As to conditions: S-ECs of pathological synovium. On the procedure: ECs (1×10^4/well) were seeded into μ-Slide 8 Well, ibiTreat (Ibidi, Martinsried, Germany) collagen-coated. When cells reached the desired confluence, were fixed in paraformaldehyde 4% for 20 min at RT, washed twice with D-PBS and incubated with 0.1 M glycine to quench auto-fluorescence. Then, the coverslip was incubated with PBS+0.25% Triton ×100 to permeabilize cell membranes and then blocked in PBS+5% BSA for 30 min at RT. Incubation with anti-S1 PR1 primary antibody diluted in blocking buffer was performed overnight at 4° C. The following day, primary antibody was removed and fluorescent secondary antibody labelling was then added for 45 min at RT, protected from light, washed and finally, the coverlips were mounted with ProLong Gold Antifade Mountant (ThermoFisher). Immunolabeling was acquired using an inverted DM14 microscope equipped with DFC350×CCDcamera and LAS-X software (all from Leica Microsystems, Wetzlar, Germany). […] S1 PR1 levels are increased in pro-tumoral and pro-angiogenic conditions, when intracellular and extracellular levels of S1 P are presented. It is possible therefore to hypothesize the use of the anti-EPO (C4) antibody, such as in direct intra-articular treatment in the form of gel or suspension, in association or not with “coagulation factors and their derivatives” and also comprising FTY720 and negative modulators of the sphingosine-1-phosphate pathway.

Data set [1] in a line: Hematological toxicity, blood count. The settings on record: mice; IV 10 mg/Kg; 18 days. It is filed as in vivo. How it is done:
Blood samples (100 μL) were collected into K3EDTA coated tubes, which were placed on a rotary mixer for at least 30 min, then analyzed for hematological analysis.
FIGS. 27 and 28 refer to blood count of mice treated intravenously (IV) for 18 days (T18) with anti-EPO at 10 mg/Kg. (A) RBC: red blood cells; (B) HGB: hemoglobin; (C) HCT: hematocrit; (D) MCV: mean corpuscular volume; (E) MCH: mean corpuscular hemoglobin; (F) MCHC: mean corpuscular hemoglobin concentration; (G) RDW: red cell distribution width; (H) RET: reticulocyte Count; (I) PLT: platelets. Data are means±SD (FIG. 27) and A) WBC: white blood cells; (B) NEUT: neutrophils; (C) LYMP: lymphocytes; (D) MONO: monocytes; (E) EOS: eosinophils; (F) BASO: basophils. Data are means±SD (FIG. 28).

A further data set concerns U373 cells. Kind of data set: MTT viability of chemo-resistant cells. As to conditions: 96 h. It is filed as cell-based.
The subject of a further data set is MCF-7. Briefly: MTT cell viability assay. Format: cell-based, human. The settings on record: 96 hours, 6 μg/ml. The source says: G. Breast cancer cell line (MCF-7); breast cancer cells.
A general note: Tetrazolium assays rely on reduction of a dye to a coloured formazan, in cell work by metabolically active cells.

Another data set relates to A2780. Briefly: MTT cell viability assay. Format: cell-based, human. As to conditions: 96 hours, 6 μg/ml. The source says:
I. Ovarian cancer cell line (A2780); ovarian cancer cells used in toxicity testing, drug screening and genetic cancer studies.

Data set [2] has as its system human tumor GSC-derived xenograft. Kind of data set: Gene expression of GSC-derived xenograft after in vivo treatment. As to conditions: xenograft GSCs; RealTime PCR. Details: species or system mice. On the procedure: The analysis was performed by the assessment of gene expression profile on human tumor GSC-derived xenograft. Gene expression analysis were conducted by Real-Time PCR, run in triplicate, using 18S as endogenous control. Samples have been normalized to untreated CTRL. The analysis was conducted on genes related to FIG. 30A apoptosis, FIG. 30B inflammation, FIG. 30C proliferation.
Tissues were processed and total RNA was extracted following TRI-Reagent protocol and quantified with NanoDrop 1000 Spectro-photometer (Thermo Fisher Scientific). Reverse transcriptase reaction was executed using TranScriba Kit (A&A Biotechnology), loading 1 μg of RNA (A260/A280>1.8), according to manufacturer's instructions. qRT-PCR was performed using StepOnePlus™ (Thermo Fisher Scientific), 1 μg of cDNA, forward and reverse human primers (250 nM each) Titan HotTaq EvaGreen® qPCR Mix (Bioatlas). Data were normalized to 18S expression, used as endogenous control. Relative gene expression was determined using the 2-ΔΔCt method (FIG. 30).

For the next data set, the system named is primary GSCs. Briefly: MTT cell viability assay. It is filed as cell-based, human. As to conditions: 96 hours, anti-EPO (C4) 6 μg/ml, TMZ 100 μM, FTY720 100 nM. The source says:
A. Primary glioblastoma cancer stem cells (GCSc).

Another data set relates to N9 microglia cells. Kind of data set: Microglia proliferation and morphology after LPS. Format: cell-based, murine. The settings on record: after LPS stimulation. How it is done:
N9 microglial cells were seeded in multiwell plates at a concentration of 1.5×10^4 for 24 hours. The following day the cells were administered the following treatments for 24 hours: • LPS; • Anti-EPO (c4) antibody administered alone; • Anti-EPO (c4) antibody in combination with LPS • Anti-EPO (c4) antibody in combination with LPS and FTY720
N9 cells were detached with enzyme, and an aliquot of known volume was labeled with trypan blue and observed under the microscope for counting. Considering that the number of cells in the culture control, without any treatment, as being 100, the percentage of proliferation of N9 cultured in presence of LPS, anti-EPO (C4) antibody, combination of LPS and anti-EPO antibody was calculated (FIG. 15B).
N9 cells were cultured in Iscove's Modified Dulbecco's MEM, IMDM containing streptomycin/1× penicillin and 2 mM L-glutamine, supplemented with FBS (fetal bovine serum) at 5%. The cells were plated at a concentration of 1.5×10^4 cells/cm2 and kept in a thermostatic incubator at 37° C., with 5% C02, for 24 hours, as above. The next day, the cells were exposed to different treatments for 48 hours. At the end of the treatments, cell viability and proliferation were assessed by staining with trypan blue and observed under the microscope for counting.
The microglia were maintained in a basal culture medium and then activated with lipopolysaccharide (LPS). […]

Procedure for DLD1: Cell viability was assessed by 3-(4,5-Dimethylthiazol-2-yl)-2,5-Diphenyl-tetrazoliumBromide (MTT) assay, as a function of redox potential (FIGS. 2-7). Cells (5×10^3/well) were seeded and cultured in 96-well plate for 24 h in Basal Medium (BM). Then, culture media were replaced with fresh media containing the specific treatments, or in BM as a control condition (CTR).
Test was performed in triplicate after 96 h of treatment, by replacing culture media with 100 μL of fresh media added with 10 μL of MTT 5 mg/ml in D-PBS. After 4 h of incubation, media were removed and cells were lysed with 100 μL of 2-propanol/formic acid (95:5, by vol) for 10 min. Then, absorbance was read at 570 nm in microplate reader.

B1: anti-EPO (C4): isolated anti-Erythropoietin monoclonal antibody, VL SEQ ID NO:6, VH SEQ ID NO:14, hybridoma DSM ACC 3370 (antibody, listed as Homo sapiens, V domains shown)
VH: EVKLQESGGGLVQPGGSLKLSCAASGFTFSTYTMSWVRQTPEKRLEWVAYISNGGDRTYYPDTVKGRFTISRDDAKNTLFLQMSSLKSEDTAMYYCARHNITTVPFTMDYWGQGTSVTVSS
VL: DIVLTQSPASLAVSLGQRATISCRASESVDYYGTGLMQWYQQRPGQPPKLLIYGASNVGSGVPARFSGSGSGTDFSLNIHPVEGDDIAMYFCQQTRKVPSTFGGGTKLEIK
modifications: VH amino acid sequence; VL amino acid sequence
As to B1, the “cells initially plated dead” value worked out at 73% with DLD1, 71% in the data set with MCF-7 and 63% with A2780. In the data set with S1PR1, the S1PR1 expression levels entry is given as “decreased expression levels of S1 PR1”. Moreover, in [1], the “blood count (hematological parameters)” value is “no significant variations in all hematological parameters analyzed”. Also, the percent survival in the data set with U373 cells is recorded as 30%. The “gene expression on tumoral cells after in vivo treatment” value in data set [2] was “induced inhibition cancer stem cell proliferation, increase apoptosis and inflammation”. In addition, the “cells initially seeded dead” value in the data set with primary GSCs is listed as “about 73%”. In addition, the morphology of microglia result in the data set on N9 microglia cells is given as “recover or maintain a branched morphology”.

The values above are taken from patent publication US20240294624A1, “ANTI-ERYTHROPOIETIN ANTIBODY” (ANDREMACON S.R.L., priority 2021, published 2024).
